For experiment [1], the target named is T1, SARS-CoV-2 바이러스 표면 단백질 (RBD), WT (SARS-CoV-2, UniProt P0DTC2 319-541). Description: BLI (Octet), Full IgG on RBD WT. A general note: Biolayer interferometry detects binding as a change in optical thickness at a sensor tip.
Experiment [2] has as its target T1, SARS-CoV-2 바이러스 표면 단백질 (RBD), WT. Description: BLI (Octet), Full IgG culture supernatant on SARS-CoV-2 RBD.

For 1 molecule, Kd, koff and kon results are on record in patent publication KR20220013297A (dated 2022).

In general, Kd refers to the concentration at which binding is half-saturated. For orientation: koff means a measure of how fast the partners let go of each other. A word on the kon: it is a measure of how fast the partners come together. Read a low kon as slow association.

B1: No. 32 항체 (Full IgG) (antibody, V domains shown)
VH: EVQLVQSGGGLIQPGGSLRLSCAASEFIVSSNYMTWVRQAPGKGLEWVSIIYPGGSTYYADSVKGRFTISRDNSKNTLYLRMNSLRAEDTAVYYCARDLPLTGTTLDYWGQGTLVTVSS
VL: not shown
As to B1, in experiment [1], the Kd was found to be 0.305 nM, the koff came out at 0.000193 s⁻¹ and the kon turned out to be 633000 M⁻¹ s⁻¹. In experiment [2], this molecule displayed a Kd of 0.147 nM.
